Patent US20230331868A1 (Seagen, published 2023)

B1: Humanized 3F1 VL1,VH1 (antibody, V domains shown)
VH: QVQLVQSGAEVKKPGASVKVSCKASGYTFTDHAIHWVRQAPGQGLEWMGYISPGNGDIKYNEKFKDRVTMTADKSSSTAYMQLRSLRSDDTAVYFCKRSLLALDYWGQGTLVTVSS
VL: DIQMTQSPSSLSASVGDRVTITCKASQDVGTNIAWYQQKPGKAPKVLIYSASTRHTGVPSRFSGSGSGTDFTLTISSLQPEDFATYFCQQYSSFPLTFGQGTKVEIK
notes: also called Hu3F1,L1H1; Hu3F1 L1H1
B2: Humanized 2G12-2B2 VL2,VH2 (antibody, V domains shown)
VH: QVQLVQSGAEVKKPGASVKISCKASGYTFTDHAIHWVRQAPGQGLEWIGYFSPGNDDIKYNEKFRGRVTLTADKSSSTAYMELRSLRSDDTAVYFCKRSLSTPYWGQGTLVTVSS
VL: DIVMTQSPDSLAVSLGERVTMSCKSSQSLLNRGNHKNYLTWYQQKPGQPPKLLIYWASTRESGVPDRFSGSGSGTDFTLTISSLQAEDVAVYYCQNDYTYPYTFGQGTKVEIK
notes: also called Hu2G12-2B2,L2H2; Hu2G12-2B2 L2H2

Tests used:
[1] = target: T1, bovine submaxillary mucin (bovine); assay: ELISA on BSM-coated wells; periodate-sensitive signal
T1 construct: Natural mucin preparation; also called BSM
Method: (§1) For BSM ELISA analysis, antibodies were screened over a concentration range of 0 to 100 nM on bovine submaxillary mucin (BSM) coated wells. A subset of wells were treated with mild periodate solution before antibody binding to remove the side chain on terminal sialic acid residues (destroying the STn antigen). Optical densities of periodate and non-periodate-treated wells were determined and log transformed then fit to a nonlinear regression model to obtain a dose response curve. Optical density values obtained from periodate-treated wells were subtracted from non-periodate treated wells to obtain a periodate-sensitive STn binding curve and corresponding EC₅₀ values.

[2] = target: T1, bovine submaxillary mucin; assay: ELISA on BSM-coated wells; antibody from one liter production
Method: as §1
Based on the results of characterization experiments, two antibodies from each clone group were selected for one liter expression and resulting antibodies were tested again according to the same procedures (see results presented in the following Table).

Binder	EC50 [1] [nM]	EC50 [2] [nM]
B1	1.8	0.86
B2	2.9	1.82
